assay: yeast display, Sf9 membrane polyspecificity reagent, FACS + sequencing; frameworks hold sequencing errors
How it was run: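 Galactose induction of a Saccharomyces cerevisiae BJ5465 synthetic nanobody display library ran 36–48 hours. The cells were then stained for 1 hour at 4 °C with 10% biotinylated, detergent-solubilized Sf9 membrane reagent, pulled down on streptavidin microbeads and FACS-sorted into low and high (top ~1%) gates on expression and reagent-binding fluorescence. Labels for polyreactivity follow the gate of origin.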

| Sequence | polyreactivity (PSR sort gate) |
| --- | --- |
| QVQLVESVGGLVQAGGSLRLRCAASGRTFGVYAMGWYRQAAGKESEFVATITSRGGRTYSADSVKGRFTISRDNAKKTVYLQMNSLIPEDTAVYYCAAQVGRNGVSEYDYWGQGTQVTVSS | high polyreactivity |
| QVQLVESVGGLVQAGGSLRLSCAASGFIFGYNAMGWYRQAPGKERELVAAITSRGDRTYYADSVKGRFTISRDNAKNTVYLQMNSLKPEDTAVYYCAKATRGYRSPYCSIGYYYWGQGTQLTVSS | high polyreactivity |
| QVQLVESVGGLVQAGGSLRLSCAASGFIFKGNAMGWYRQAPGKERELVAAITNRGGGTYYADSVKGRFTISRDNAKNTVYLQMNSLKPEDTAVYYCAKAYTRPFHPYDYWGQGTQVTVSS | high polyreactivity |
| QVQLVESVGGLVQAGGSLRLSCAASGFIFNWYAMGWYRQAPGKERELVAAITSGGSTNYADSVKGRFTISRDNAKNTVYLQMNSLKPEDTAVYYCAARDWRRYGYWGQGTQVTVSS | high polyreactivity |
| QVQLVESVGGLVQAGGSLRLSCAASGFIFSQYAMGWDRKAPGKERELVAAISKSGGRTYYADSVKGRFTFSRDNAKNTVYLQMNSLKPEDTAVYYCAAVSYSSYRYDYWGQGTQVTVSS | high polyreactivity |
| QVQLVESVGGLVQAGGSLRLSCAASGFIFYGYAMGWYRQAPGKERELVAAISRSGTSTYYADSVKGRFTISRDNAKNTVYLQMNSLKPEDTAVYYCAADYVGWKWGSRGAIYKHYYWGQGTQVTVSS | high polyreactivity |
| QVQLVESVGGLVQAGGSLRLSCAASGFIFYSNAMGWYRKAPGKERELVAAISRSGGSTYYADSVKGRFTISRDNAKNTVYLQMNSLKPEDTAVYYCNVYCYDWWGYDYWGQGTQVTVSS | high polyreactivity |
| QVQLVESVGGLVQAGGSLRLSCAASGFIFYYNTMGWYRQAPGKERELVAAISSGGRTYYADSVKGRFTISRDNAKNTVYLQMNSLKPEYTAVYYCNVVTYVKYGYWGQGTQVTVSS | high polyreactivity |
| QVQLVESVGGLVQAGGSLRLSCAASGFNFDYYTMGWYRQAPGKEREFVAAINRRGDITYYADSVKGRFTISRDNAKNTVYLQMNSLKPEDTAVYYCAANLTCSSRYEYGYWGQGTQVTVSS | low polyreactivity |
| QVQLVESVGGLVQAGGSLRLSCAASGFNFPGYAMGWYRPAPGKERELVAAITGSGGRTYYADSVKGRFTISRDNAKNTVYLQMISLKPEDTAVYYCLARSYYNWYDYWGKGTQVTVSS | high polyreactivity |
| QVQLVESVGGLVQAGGSLRLSCAASGFNFSAYAMGGYRQAPGKESELVAAISWSGSRTYYADSVKGRFTISRDNAKNTVYLQMNSLKPEDTAVFYCAKEPYDTFGFYEYDYWGQGTQVTVSS | low polyreactivity |
| QVQLVESVGGLVQAGGSLRLSCAASGFTFANYAMGWYRQAPGKERELVAAITWSGGRTYYADSVKGRFTISRDNAKNTVYLQMNSLKQEYTAVYYCAAGLGTLYGYWGQGTQVTVSS | high polyreactivity |
| QVQLVESVGGLVQAGGSLRLSCAASGFTFLWYAMGWYRQAPGKEWELVAAINSSGVRTYYADSVKGRFTISRDNAKNTVYLLMNSLKPEDTAVYYCAAYQKTYTEDEYWGQGTQVTVSS | high polyreactivity |
| QVQLVESVGGLVQAGGSLRLSCAASGFTFTYNAMGWYRQAPGKERELVAAISRNGGRTYYADSVKGRFTISRDNAKNTVYLQMNSLKPEDTAVYYCNAVYYYYYWRVSIYDYWGQGTQVTVSS | high polyreactivity |
| QVQLVESVGGLVQAGGSLRLSCAASGFTFWIYAMGWYRQAPGKERELVAVISRGGSTYYADSVKGRFTISRDNAKNTVYLQMNSLKPEDTAVYYCAAYWRSRNRFYWGQGTQVTVSS | high polyreactivity |
| QVQLVESVGGLVQAGGSLRLSCAASGGTFFYNSMGWYRQAPGKEREFVAAINGGTSTNYADSVKGRFTISRDNAKNTVYLQMNSLKPEDTAVYYCAAVYRRLGRFDWYDYWGQGTQVTVSS | low polyreactivity |
| QVQLVESVGGLVQAGGSLRLSCAASGITFDRNAMGWYRQAPGKERELVAAISSGGTYADSVKGRFTISRDNAKNTVYLQMNSLKPEDTAVYYCNADTDYIRWIYGYWGQGTQVTVSS | low polyreactivity |
| QVQLVESVGGLVQAGGSLRLSCAASGITFSLYAAMGWYRQAPGKERELVAAISWRGGNTYYADSVKGRFTISRDNAKNTVYLQMNSLKPEDTAVYYCAARRTNLPVNFYYWGQGTQVTVSS | high polyreactivity |
| QVQLVESVGGLVQAGGSLRLSCAASGITYYGYAMGWYRQAPGKERELVAAISKSGGSTHYADSVKGRFTISRDNAKNTVYLQMNSLKPEDTAVYYCNSRSLVFPITFWEYDYWGQGTQVTVSS | low polyreactivity |
| QVQLVESVGGLVQAGGSLRLSCAASGLIFSRYAMGWYRQAPGKERELVAAITSGTSTYYADSVKGRFTISRDNAKNTVYLQMNSLKPEDTAVYYCARRYRGGYKYDYWGQGTQVTVSS | high polyreactivity |
| QVQLVESVGGLVQAGGSLRLSCAASGLIFVRYAMGWYRQAPGKERELVATITWSGGTTYADSVKGRFTISRDNAKNTVYLQMNSLKPEDTAVYYCAVEWPAWTDSDYPVGGHAFGYWGQGTQVTVSS | low polyreactivity |
| QVQLVESVGGLVQAGGSLRLSCAASGLTCYGKTMGWYRQAPGKDRELVAAISFDGGNTYADSVKGRFTISRDNAKNTVYLQMNSLKPEDTAVYYDYWGQGNQVTVSS | low polyreactivity |
| QVQLVESVGGLVQAGGSLRLSCAASGNTFSLYAMGWYSQAPGKERELVAAITWITGSTDYADSVKGRFTISRDNAKNTVYLQMNSLKPEDTAVYYCAADGDFSWFYSYETGWIEYDYCGQGTQVTVSS | low polyreactivity |
| QVQLVESVGGLVQAGGSLRLSCAASGRIFRSYTMGWYREATGKERELVAGIRASGGSTYYADSVKGRFTISRDNAKNTVYLQMNSVKPEDTAVYYCAARRYTTFGIRDYWGQGTQVTVSS | high polyreactivity |
| QVQLVESVGGLVQAGGSLRLSCAASGRIFTLYAMGWYRQAPGKERELVAAISWSGGSTYYADSVKGRFTISRDNAKNTVYLQMNSLKPEDTAVYYCAATWYRYYSIPRYDSWGQATQVTVSS | high polyreactivity |
| QVQLVESVGGLVQAGGSLRLSCAASGRIFYPYAMGWYRQAPGKERELVAAITRGGITTYADSVYGRFTISRDNAKNTVYLQMNSLKPEDTAVYYCNAVRWYGRMDYWGQGTQVTVSS | low polyreactivity |
| QVQLVESVGGLVQAGGSLRLSCAASGRIYVYVMGWYIQSPGKERELVAAITSGGSTYYADSVKGRFTISRDNAKNTDYLQMNSLKPEDTAVYYCAADVNGGYDYYYFVSIVYYWGQGTQVTVSS | low polyreactivity |
| QVQLVESVGGLVQAGGSLRLSCAASGRTCGYKAMGWYRQAPGKERQLVAAISRGGSTNYADSVKGRFTISRDNAKNSVYLQMNSLKPEDTAVYYCAKTIRAYRPSRTAYRLDYWGQGTQVTVSS | high polyreactivity |
| QVQLVESVGGLVQAGGSLRLSCAASGRTFRAYSMGSYRQAPGKETELVAAIRSGTSTNYADSVKGRFTISRDNAKNTVYLQMNSLKPEDTAVYYCAARWWYYIGGRDYWGHGTQVTVSS | high polyreactivity |
| QVQLVESVGGLVQAGGSLRLSCAASGRTFRNNAMGWYRQAPGTEREFVAVISNTGGSTYYADSVKGRFTISRDNAKNTVYLQLNSLKPEDTAVYYCAVRPRYSQYYYWGQGTQVTVSS | high polyreactivity |

Source: the nanobody polyreactivity screen of Harvey et al. (2022)
